Test [1] has as its target Recombinant human cyclophilin A (human) (UniProt P62937). The test can be described thus: native MS.
Test [2] shares this target. The test can be described thus: native MS. The source holds these as a separate data set.

Read-outs that look alike come from different tables or passages of the source.

“Recombinant human cyclophilin A (from UniProt P62937 1-165) (enzyme)”: the stoichiometry N in test [1] and in test [2] was 2 each time.
